Measured values reported in the supplement of paper PMC7877785.
± gives the uncertainty stated by the source.

Assay: self-splicing fitness, log relative to wild type (ln ratio); higher = more splicing; Tetrahymena group I intron in knt gene, E. coli kanamycin selection, DiMSum; sequences stand for … in CUCUCU…GGAGGGAAAAGUUAUCAGGCAUGCACCUGGUAGCUAGUCUUUAAACCAAUAGAUUGCAUCGGUUUAAAAGGCAAGACCGUCAAAUUGCGGGAAAGGGGUCAACAGCCGUUCAGUACCAAGUCUCAGGGGAAACUUUGAGAUGGCCUUGCAAAGGGUAUGGUAAUAAGCUGACGGACAUGGUCCUAACCACGCAGCCAAGUCCUAAGUCAACAGAUCUUCUGUUGAUAUGGAUGCAGUUCACAGACUAAAUGUCGGUCGGGGAAGAUGUAUUCUUCUCAUAAGAUAUAGUCGGACCUCUCCUUAAUGGGAGCUAGCGGAUGAAGUGAUGCAACACUGGAGCCGCUGGGAACUAAUUUGUAUGCGAAAGUAUAUUGAUUAGUUUUGGAGUACUCGUGGUCG
Summary of the method: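 Colonies from six replicate transformations of E. coli BL21(DE3) were pooled and amplicon-sequenced on an Illumina HiSeq 2500. The library placed an intron with all eight P1ex-region nucleotides randomised inside the knt kanamycin-resistance gene on pET-22b(+), and cells grew overnight at 37°C or 30°C on LB agar with or without 25 μg/mL kanamycin (plus 100 μg/mL carbenicillin, 50 μM IPTG, 0.2% rhamnose). Fitness is the DiMSum error-weighted combination of wild-type-normalised replicate fold changes, kanamycin versus none.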

| Sequence | self-splicing fitness (ln) (30 °C) | self-splicing fitness (ln) (37 °C) |
| --- | --- | --- |
| AGACAGCAAUAUUACGUAUA | -2.54 ± 0.14 | -0.807 ± 0.13 |
| CACUAGCAAUAUUACGCCUG | -0.103 ± 0.15 | -0.344 ± 0.14 |
| CCCAAGCAAUAUUACGUUCC | -3.87 ± 0.37 | -2.3 ± 0.37 |
| GUCCAGCAAUAUUACGCAAG | -1.32 ± 0.12 | -1.28 ± 0.14 |
| CGGAAGCAAUAUUACGAAAU | -3.59 ± 0.45 | -2.96 ± 0.31 |
| AGGCAGCAAUAUUACGUUGA | -2.42 ± 0.11 | -1.25 ± 0.1 |
| UGCCAGCAAUAUUACGAAUC | -4.4 ± 0.46 |  |
| ACGAAGCAAUAUUACGAUAU | -3.39 ± 0.14 | -2.03 ± 0.14 |
| GCGCAGCAAUAUUACGGUAG | -3.4 ± 0.15 | -1.88 ± 0.14 |
| CCGCAGCAAUAUUACGGUGC | -2.98 ± 0.18 | -2.63 ± 0.22 |
| CAUGAGCAAUAUUACGGGAC | -2.99 ± 0.18 | -1.95 ± 0.24 |
| UGGUAGCAAUAUUACGGUGC | -2.31 ± 0.34 |  |
| AUCAAGCAAUAUUACGUUAC | -5.49 ± 0.45 | -2.82 ± 0.27 |
| CGUUAGCAAUAUUACGAUUU | -2.51 ± 0.27 | -1.66 ± 0.25 |
| AGUUAGCAAUAUUACGAGCG | -0.12 ± 0.1 | 0.237 ± 0.11 |
| UACAAGCAAUAUUACGAGUA | -2.13 ± 0.08 | -0.707 ± 0.078 |
| AGGAAGCAAUAUUACGGAUU | -2.3 ± 0.12 | -1.55 ± 0.14 |
| CUCGAGCAAUAUUACGGCGG | -1.2 ± 0.12 | -0.858 ± 0.2 |
| CUCCAGCAAUAUUACGUAGU | -3.75 ± 0.19 | -2.89 ± 0.22 |
| GUAAAGCAAUAUUACGAAAG | -2.91 ± 0.19 | -1.33 ± 0.19 |
| GCACAGCAAUAUUACGGCAU | -1.59 ± 0.095 | -0.16 ± 0.091 |
| GCAAAGCAAUAUUACGGGGC | -4.05 ± 0.34 | -3.13 ± 0.31 |
| UGUUAGCAAUAUUACGUAUG | -0.871 ± 0.13 | -0.234 ± 0.17 |
| GAACAGCAAUAUUACGCGAA | -0.881 ± 0.086 | -0.124 ± 0.12 |
| AGAUAGCAAUAUUACGGCUA | 0.0313 ± 0.1 | 0.162 ± 0.098 |
| UGCGAGCAAUAUUACGACUG | -0.639 ± 0.17 | -0.0696 ± 0.2 |
| CUGGAGCAAUAUUACGUUGC | -3.09 ± 0.33 |  |

| Sequence | self-splicing fitness (ln) (30 °C) | self-splicing fitness (ln) (37 °C) |
| --- | --- | --- |
| AACCAGCAAUAUUACGCCCG | -0.353 ± 0.1 | -0.271 ± 0.17 |
| CCAGAGCAAUAUUACGCUCG | -2.32 ± 0.28 | -1.95 ± 0.38 |
| GUGCAGCAAUAUUACGUCCU | -0.637 ± 0.12 | -0.541 ± 0.096 |
| AUGGAGCAAUAUUACGCAGC | -2.14 ± 0.23 | -2.54 ± 0.33 |
| UGCUAGCAAUAUUACGGGAU | -3.68 ± 0.19 | -1.76 ± 0.14 |
| CUCUAGCAAUAUUACGUGAC | -4.2 ± 0.26 | -1.68 ± 0.17 |
| GUCGAGCAAUAUUACGGGUG | -4.13 ± 0.25 | -2.11 ± 0.19 |
| CGGUAGCAAUAUUACGAUAA | -2.55 ± 0.21 | -1.61 ± 0.24 |
| UUUGAGCAAUAUUACGCUGU | -3.01 ± 0.27 |  |
| AGAUAGCAAUAUUACGUUAU | -3.23 ± 0.17 | -3.55 ± 0.25 |
| CGCUAGCAAUAUUACGACUU | -2.41 ± 0.12 | -0.983 ± 0.15 |
| UUAUAGCAAUAUUACGGUUG | -1.32 ± 0.12 | -0.629 ± 0.15 |
| UUAAAGCAAUAUUACGUGGU | -3.26 ± 0.12 | -2.73 ± 0.15 |
| CCUAAGCAAUAUUACGACUA | -2.87 ± 0.4 | -1.59 ± 0.33 |
| UUAUAGCAAUAUUACGGCAC | -2.82 ± 0.36 | -2.51 ± 0.49 |
| UCAUAGCAAUAUUACGUGAG | -1.1 ± 0.081 | -0.39 ± 0.11 |
| UGCGAGCAAUAUUACGAGGA | -3.56 ± 0.18 | -2.75 ± 0.18 |
| CUUCAGCAAUAUUACGUCUC | -3.17 ± 0.2 | -3.03 ± 0.2 |
| AAGGAGCAAUAUUACGGCAC | -1.23 ± 0.47 | -1.62 ± 0.46 |
| ACUCAGCAAUAUUACGCAUC | -2.72 ± 0.15 | -1.48 ± 0.11 |
| ACCGAGCAAUAUUACGUUAA | -3 ± 0.13 | -2.7 ± 0.14 |
| GAUGAGCAAUAUUACGGGAU |  | -2.36 ± 0.42 |
| CUUCAGCAAUAUUACGGUUC | -3.39 ± 0.2 | -1.69 ± 0.18 |
| CCGAAGCAAUAUUACGGGUC | -3.13 ± 0.22 | -3.03 ± 0.37 |
| CCAAAGCAAUAUUACGCAGC | -3.4 ± 0.26 | -2.49 ± 0.33 |
| AUCAAGCAAUAUUACGGUGU | -1.7 ± 0.076 | -1.11 ± 0.088 |
| GUUGAGCAAUAUUACGACUC | 0.144 ± 0.2 | -0.535 ± 0.19 |

| Sequence | self-splicing fitness (ln) (30 °C) | self-splicing fitness (ln) (37 °C) |
| --- | --- | --- |
| ACCAAGCAAUAUUACGAAUG | -3.18 ± 0.1 | -1.78 ± 0.1 |
| AUCGAGCAAUAUUACGAGCA | -1.2 ± 0.12 | -0.963 ± 0.14 |
| UCCGAGCAAUAUUACGCGAG |  | -1.2 ± 0.24 |
| GCUGAGCAAUAUUACGACAA | -3.36 ± 0.45 | -1.07 ± 0.39 |
| AUCGAGCAAUAUUACGGCAU | -0.455 ± 0.098 | -0.101 ± 0.1 |
| UGAGAGCAAUAUUACGAAAG | -5.04 ± 0.28 | -2.86 ± 0.25 |
| AUCGAGCAAUAUUACGCAUU | -1.6 ± 0.24 | -3.11 ± 0.3 |
| CACUAGCAAUAUUACGGGCA | -1.91 ± 0.21 | -1.71 ± 0.21 |
| AACGAGCAAUAUUACGUAAA | -3 ± 0.24 | -2.49 ± 0.33 |
| UACGAGCAAUAUUACGUGAA | -3.05 ± 0.2 |  |
| UUUGAGCAAUAUUACGGCAU | -1.56 ± 0.33 | -1.62 ± 0.3 |
| AAGUAGCAAUAUUACGUGAG | -1.57 ± 0.048 | -0.575 ± 0.066 |
| CGUGAGCAAUAUUACGGUCA | -3.84 ± 0.25 | -2.12 ± 0.16 |
| AUCAAGCAAUAUUACGGUCC | -1.55 ± 0.13 | -1.75 ± 0.17 |
| AGCCAGCAAUAUUACGAACG | -3.24 ± 0.27 | -2.97 ± 0.37 |
| GUAGAGCAAUAUUACGGAGC | -0.91 ± 0.14 | -0.327 ± 0.2 |
| AAAGAGCAAUAUUACGGCGC | -2.27 ± 0.2 | -0.545 ± 0.21 |
| CGAUAGCAAUAUUACGUGUU | -4.25 ± 0.14 | -2.3 ± 0.1 |
| UUCUAGCAAUAUUACGACCG | -1.13 ± 0.26 | -1.07 ± 0.42 |
| CUUAAGCAAUAUUACGUGUU | -4.03 ± 0.15 | -2.66 ± 0.15 |
| AGAGAGCAAUAUUACGUUGA | -2.77 ± 0.23 | -2.06 ± 0.26 |
| UCGUAGCAAUAUUACGACAG |  | -1.5 ± 0.29 |
| GGACAGCAAUAUUACGCCGC |  | -1.06 ± 0.5 |
| AGUCAGCAAUAUUACGCUAU | -0.623 ± 0.1 | -0.137 ± 0.11 |
| GGGCAGCAAUAUUACGGGCG | -0.318 ± 0.088 | -0.0663 ± 0.1 |
